According to patent publication US20180244758A1:
Where a chain is given by its changes, count along the chain named. Names and notes keep the numbering of the source.

B1: mAb PE-87 (antibody, V domains shown)
VH: QVQLVQSGVTLVQPGGSLRVSCAASGFTFSSYAMSWVRQAPGKGLEWVSAISGLGGSTYYADSVKGRFTISRDNSKNTLYLQMNSLRAEDTAVYYCAKDHRVWAAGYHFDYWGQGALVTVSS
VL: DIVLTQSPSTLSASVGDRVTITCRASQSISSWLAWYQQKPGEAPKLLISDASSLESGVPSRFSGSGSGTEFTLTISSLQPDDFATYYCQQYYSSPTFGGGTKVEIK
B2: PE-87 H108A (antibody, V domains shown)
VH: B1 VH with H108A
VL: B1 VL
B3: PE-87 Y111A (antibody, V domains shown)
VH: B1 VH with Y111A
VL: B1 VL
B4: PE-87 D110A (antibody, V domains shown)
VH: B1 VH with D110A
VL: B1 VL
B5: PE-87 F109A (antibody, V domains shown)
VH: B1 VH with F109A
VL: B1 VL
B6: PE-87 V102A (antibody, V domains shown)
VH: B1 VH with V102A
VL: B1 VL
B7: PE-87 G106A (antibody, V domains shown)
VH: B1 VH with G106A
VL: B1 VL
B8: PE-87 R101A (antibody, V domains shown)
VH: B1 VH with R101A
VL: B1 VL
B9: PE-87 H100A (antibody, V domains shown)
VH: B1 VH with H100A
VL: B1 VL
B10: PE-87 Y107A (antibody, V domains shown)
VH: B1 VH with Y107A
VL: B1 VL
B11: PE-87 D99A (antibody, V domains shown)
VH: B1 VH with D99A
VL: B1 VL
B12: PE-87 W103A (antibody, V domains shown)
VH: B1 VH with W103A
VL: B1 VL

biological target: EBOV GP[change] (Ebola virus) (UniProt Q05320)
Sequence (Q05320 33-501, chain 1 of 2): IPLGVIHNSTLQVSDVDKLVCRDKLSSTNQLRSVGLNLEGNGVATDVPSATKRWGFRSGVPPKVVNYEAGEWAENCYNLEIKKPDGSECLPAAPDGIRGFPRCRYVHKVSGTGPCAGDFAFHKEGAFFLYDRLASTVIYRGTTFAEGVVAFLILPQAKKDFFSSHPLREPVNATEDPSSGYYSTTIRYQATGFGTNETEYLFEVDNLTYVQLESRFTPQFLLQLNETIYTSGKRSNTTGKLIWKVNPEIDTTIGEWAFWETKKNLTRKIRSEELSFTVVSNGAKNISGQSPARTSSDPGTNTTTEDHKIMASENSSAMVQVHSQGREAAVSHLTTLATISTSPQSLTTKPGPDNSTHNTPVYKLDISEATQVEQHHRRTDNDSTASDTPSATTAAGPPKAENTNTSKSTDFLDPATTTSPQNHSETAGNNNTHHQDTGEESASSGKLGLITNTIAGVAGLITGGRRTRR
Sequence (Q05320 502-650, chain 2 of 2): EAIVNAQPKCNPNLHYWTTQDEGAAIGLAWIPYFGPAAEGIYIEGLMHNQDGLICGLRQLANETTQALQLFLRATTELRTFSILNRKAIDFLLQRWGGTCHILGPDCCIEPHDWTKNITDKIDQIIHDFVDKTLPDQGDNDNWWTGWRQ

| Binder | Kd [nM] |
| --- | --- |
| B1 | < 0.001 |
| B2 | 18 |
| B3 | 5.9 |
| B4 | 1.3 |
| B5 | 37 |
| B6 | 4 |
| B7 | 0.03 |
| B8 | 9.4 |
| B9 | 4.5 |
| B10 | 30 |
| B11 | 74 |
| B12 | 1.3 |
